Numbering of substitutions follows the chain as printed. Blank lines part the entries; values can stand above or below the binder they belong to.
Experiments:
[1] = biological target: T1, human PD-L1 (recombinant, in solution) (human, UniProt Q9NZQ7 19-238, limits assumed); test: BLI OctetRed 96, BCD-135 on AR2G sensors, PD-L1 in solution at 10 to 1 ug/ml, 30 C, 1:1 model; human PD-L1
T1 construct: also called human PD-L1 antigen
Method: (§1) Constants of the antibody binding affinity to human and cynomolgus PD-L1 were measured with an OctetRed 96 instrument (from ForteBio). […] The assay was carried out at 30 ° C. using PBS containing 0.1% Tween-20 and 0.1% BSA as a reaction buffer. The binding of human and monkey PD-L1 solutions to a sensor-bound antibody was analysed in a work buffer with an antigen concentration of 10 μg/ml to 1 μg/ml.
(§2) The binding curves minus the reference signal were analyzed using Octet Data Analysis (ver 8.2) software according to the standard procedure using the 1:1 interaction model.

rabbit PD-L1-Fc = biological target: T2, rabbit PD-L1-Fc (rabbit, UniProt G1SUI3 19-236); test: ELISA, PD-L1-Fc coated at 0.5 ug/ml
T2 construct: also called rabbity PD-L1-Fc; not shown: Fc part
T2 sequence: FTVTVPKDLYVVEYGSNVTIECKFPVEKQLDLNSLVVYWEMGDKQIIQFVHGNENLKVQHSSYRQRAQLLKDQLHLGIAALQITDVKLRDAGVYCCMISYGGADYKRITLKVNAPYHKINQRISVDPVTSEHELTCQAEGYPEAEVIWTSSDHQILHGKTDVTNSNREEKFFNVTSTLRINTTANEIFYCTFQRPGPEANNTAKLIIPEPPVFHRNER
Method: (§3) ELISA was used to measure the relative affinity of anti-PD-L1 antibodies from different organisms. For the binding assay, ELISA plate wells (medium binding from Greiner bio one) were coated with 50 μl of human, cynomolgus, murine, rat, canine, rabbity PD-L1-Fc, (0.5 μg/ml in 1× carbonate buffer), hermetically sealed and incubated overnight at 4° C. All the subsequent stages were conducted following standard ELISA protocol described above.

human PD-L1-Fc [2] = biological target: T3, human PD-L1-Fc (human, UniProt Q9NZQ7 19-238, limits assumed); test: ELISA, antigen coated at 1 µg/ml, BCD-135 titrated 5 to 0.0007 µg/ml, anti-human Fab HRP, OD 450 nm
T3 construct: not shown: Fc part
Method: (§4) ELISA was used to measure the relative affinity of anti-PD-L1 antibodies and other antigens. For binding assay, ELISA plate wells (medium binding from Greiner bio one) were coated with 50 μl of PD-L1-Fc, fPCSK9-EPEA, Ang2-H6F, GM-CSF-FE, CD3-ED-Fc, IL17a, CD38-Fc, IL6R-Fc (1 μg/ml in lx carbonate buffer), hermetically sealed and incubated overnight at 4° C. All the subsequent stages were conducted following standard ELISA protocol. To block a non-specific binding, a buffer BB (200 μL of 0.5% skimmed milk in PBS) was added. The plates were incubated on a shaker for an hour at room temperature. […] The plates were again incubated, shaking for one hour at room temperature, followed by washing for three times each plate well with PBS-Twin buffer. Once washed, (50 μL/well) anti-human Fab HRP-conjugated secondary antibodies (from Pierce-ThermoScientific) were added at 1:5000 ratio in PBS-Tween. The plates were shaken on a rotary shaker (50 min, room temperature) and washed for three times with FSB-Twin buffer, as described above. The colourimetric signal was developed by adding TMB (50 μL/well) until saturation (average 3-5 min), then the development was quenched by adding stop solution (30 μL/well, 10% sulphuric acid). Colour signal was measured at a wavelength of 450 nm using a suitable Tecan-Sunrise plate reader (from Tecan).

[3] = biological target: T4, cynomolgus monkey PD-L1 (in solution) (cynomolgus monkey, UniProt G7PSE7 19-238); test: BLI OctetRed 96, BCD-135 on AR2G sensors, PD-L1 in solution at 10 to 1 ug/ml, 30 C, 1:1 model; cynomolgus PD-L1
T4 construct: also called cynomolgus PD-L1 antigen
Method: as §1, §2

FcgRIa = biological target: T5, FcgRIa (Homo sapiens (Human), UniProt P12314 16-292, C-terminal biotin; the letters of any biotinylation or purification tag are not given); test: Biolayer interferometry (Octet RED96), biotinylated receptor on streptavidin sensors, antibody in solution, phosphate buffer pH 7.4
T5 construct: Biotinylated receptor held on streptavidin sensors; also called Fcg receptor; Fcγ-receptor

human PD-L1-Fc [4] = biological target: T3, human PD-L1-Fc; test: ELISA, PD-L1-Fc coated at 0.5 µg/ml, antibody titrated 5 to 0.0007 µg/ml, OD 450 nm
Method: as §3

rat PD-L1-Fc = rat PD-L1-Fc (rat, UniProt D4AE25 19-239); test: as above
Method: as §3

cynomolgus PD-L1-Fc = biological target: T6, cynomolgus PD-L1-Fc (cynomolgus, UniProt G7PSE7 19-238); test: as above
T6 construct: not shown: Fc part
Method: as §3

canine PD-L1-Fc = biological target: T7, canine PD-L1-Fc (canine, UniProt E2RKZ5 19-236); test: as above
T7 sequence: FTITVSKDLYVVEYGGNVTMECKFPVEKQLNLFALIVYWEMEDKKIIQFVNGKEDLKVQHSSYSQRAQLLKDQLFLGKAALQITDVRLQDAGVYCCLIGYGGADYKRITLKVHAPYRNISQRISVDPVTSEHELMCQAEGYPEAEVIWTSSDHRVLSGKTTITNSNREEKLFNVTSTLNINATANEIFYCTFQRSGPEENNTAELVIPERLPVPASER
Method: as §3

murine PD-L1-Fc = biological target: T8, murine PD-L1-Fc (murine, UniProt Q9EP73 19-239, limits assumed); test: as above
T8 construct: not shown: Fc part
Method: as §3

IL17a = biological target: T9, IL17a (Homo sapiens (Human), UniProt Q16552 24-155); test: ELISA, antigen coated at 1 µg/ml, BCD-135 titrated 5 to 0.0007 µg/ml, OD 450 nm
T9 construct: Off-target antigen in the specificity ELISA
Method: as §4

[5] = biological target: T1, human PD-L1 (recombinant, in solution); test: BLI Octet Red 96, Fab from E. coli supernatant on anti-FABCH1 sensors, PD-L1 at 30 ug/mL, 1:1 model
Method: Anti-FABCH1-biosensors (SA) were rehydrated for 30 minutes in the reaction buffer containing 10 mM PBS, pH 7.2-7.4, 0.1% Tween-20, 0.1% BSA. The reaction buffer was added into study E. coli supernatant samples to a final concentration of 1×. Then, anti-FABCH1-biosensors were submerged in E. coli supernatants containing Fab fragments of candidate antibodies for 12 hours at 4 ° C. Sensors with surface immobilized Fab fragments were transferred into wells with reaction buffer wherein baseline was recorded (for 60 seconds). Next, sensors were transferred to wells with analyte solution (PD-L1, 30 μg/mL) to associate antigen-antibody complex (300 s). Then, sensors were returned to the wells containing the reaction buffer for the next dissociation step (600 s). After each experiment, used sensors were regenerated by 3-time placing them into the regeneration buffer (Gly-HCl, pH 1.7), thereafter they were used in the next experiment. Obtained curve analysis was carried out using Octet Data Analysis (ver 7.0) software according to the standard procedure using 1:1 interaction model.

T1 sequence (Q9NZQ7 other isoform, or with tags, fused parts or gaps limits assumed): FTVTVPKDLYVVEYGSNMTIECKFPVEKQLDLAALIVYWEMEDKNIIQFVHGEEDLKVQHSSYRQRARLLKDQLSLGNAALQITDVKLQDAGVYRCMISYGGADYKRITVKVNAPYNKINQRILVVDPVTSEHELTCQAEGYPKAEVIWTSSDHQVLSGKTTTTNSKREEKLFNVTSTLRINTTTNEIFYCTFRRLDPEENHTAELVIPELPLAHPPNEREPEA
T3 sequence (Q9NZQ7 19-238 limits assumed): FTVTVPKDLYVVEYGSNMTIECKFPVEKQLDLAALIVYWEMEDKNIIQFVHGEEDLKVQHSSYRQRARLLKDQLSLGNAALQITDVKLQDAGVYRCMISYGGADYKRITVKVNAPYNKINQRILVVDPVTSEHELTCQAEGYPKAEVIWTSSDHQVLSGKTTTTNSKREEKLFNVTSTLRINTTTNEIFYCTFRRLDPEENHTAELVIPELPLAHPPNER
T9 sequence (Q16552 24-155 limits assumed): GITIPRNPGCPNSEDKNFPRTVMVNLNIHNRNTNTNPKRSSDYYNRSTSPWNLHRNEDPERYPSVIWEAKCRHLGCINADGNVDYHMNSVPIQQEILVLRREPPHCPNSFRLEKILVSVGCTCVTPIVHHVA
Chain of rat PD-L1-Fc (D4AE25 entry or part of it limits assumed): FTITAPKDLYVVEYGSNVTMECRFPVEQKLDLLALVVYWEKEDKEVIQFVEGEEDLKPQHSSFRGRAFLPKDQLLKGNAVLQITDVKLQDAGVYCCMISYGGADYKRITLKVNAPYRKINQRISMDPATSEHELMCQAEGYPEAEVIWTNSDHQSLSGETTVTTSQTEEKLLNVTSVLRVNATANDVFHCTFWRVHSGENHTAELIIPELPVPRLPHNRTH
T5 sequence (P12314 16-292 limits assumed): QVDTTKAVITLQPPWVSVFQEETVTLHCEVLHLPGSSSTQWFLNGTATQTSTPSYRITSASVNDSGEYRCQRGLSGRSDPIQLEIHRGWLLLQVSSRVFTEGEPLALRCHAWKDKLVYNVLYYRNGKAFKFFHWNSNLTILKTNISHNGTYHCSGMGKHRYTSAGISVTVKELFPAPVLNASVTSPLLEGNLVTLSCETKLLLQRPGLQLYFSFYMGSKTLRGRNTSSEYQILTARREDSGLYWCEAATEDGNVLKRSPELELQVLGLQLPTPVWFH
T4 sequence (G7PSE7 entry or part of it): as the sequence (Q9NZQ7 19-238 limits assumed) above, with A33T, A34S, S62N, R68Q, Q82R, F173L, T185A, T192I, H215L counted along it
T6 sequence (G7PSE7 entry or part of it): as the sequence (Q9NZQ7 19-238 limits assumed) above, with A33T, A34S, S62N, R68Q, Q82R, F173L, T185A, T192I, H215L counted along it
T8 sequence (Q9EP73 19-239 limits assumed): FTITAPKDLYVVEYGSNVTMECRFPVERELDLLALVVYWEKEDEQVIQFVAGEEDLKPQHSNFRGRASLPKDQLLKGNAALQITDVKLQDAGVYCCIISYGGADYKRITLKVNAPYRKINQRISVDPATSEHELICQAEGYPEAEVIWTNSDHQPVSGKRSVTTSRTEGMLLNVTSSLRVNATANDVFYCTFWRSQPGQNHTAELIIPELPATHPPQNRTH

- Kd [1]: < 0.001 nM
- binding result (rabbit PD-L1-Fc): no binding
- EC50 (read off the curve) (human PD-L1-Fc [2]): ~6 ng/mL
- Kd [3]: 0.555 nM
- binding result (FcgRIa): no binding
- EC50 (read off the curve) (human PD-L1-Fc [4]): ~6 ng/mL
- binding result (rat PD-L1-Fc): no binding (tested: 5 µg/ml)
- EC50 (read off the curve) (cynomolgus PD-L1-Fc): ~5 ng/mL
- binding result (canine PD-L1-Fc): no binding (tested: 5 µg/ml)
- binding result (murine PD-L1-Fc): no binding (tested: 5 µg/ml)
- binding result (IL17a): no binding (tested: 5 µg/ml)
B1: BCD-135 antibody (antibody, human IgG1, lambda, L234A L235A)
heavy: not shown
light: QTVVTQEPSLSVSPGGTVTLTCGLSSGTVTAINYPGWYQQTPGQAPRTLIYNTNTRHSGVPDRFSGSISGNKAALTITGAQAEDEADYYCALYMGNGGHMFGGGTKLTVLGQPKAAPSVTLFPPSSEELQANKATLVCLISDFYPGAVTVAWKADSSPVKAGVETTTPSKQSNNKYAASSYLSLTPEQWKSHRSYSCQVTHEGSTVEKTVAPTECS
notes: also called anti-PD-L1 antibody; modified IgG1 antibody

- Response [5]: 0.0903
B2: wild type BCD-135 Fab antibody (Fab, V domains shown)
VH: EVQLVESGGGVVRPGGSLRLSCAASGFTFDDYAMSWVRQAPGKGLEWVSDISWSGSNTNYADSVKGRFTISRDNAKNSLYLQMNSLRAEDTALYHCARAPLLLAMTFGVGSWGQGTLVTVSS
VL: QTVVTQEPSLSVSPGGTVTLTCGLSSGTVTAINYPGWYQQTPGQAPRTLIYNTNTRHSGVPDRFSGSISGNKAALTITGAQAEDEADYYCALYMGNGGHMFGGGTK
notes: Fab made in E. coli and used as supernatant; also called Wild-BCD-135VH; control wild BCD-135 Fab

- Response [5]: 0.0623
B3: 5m-BCD-135VH (Fab, V domains shown)
VH: B2 VH with D30K, D31S, M34I, R98K, L102M, M105A
VL: B2 VL with M94Y, N96T, G98S
notes: Substitutions derived from the printed CDR strings; Fab from E. coli supernatant; also called BCD-135 mutant Fab antibody 5m

- Response [5]: 0.0945
B4: 6m-BCD-135VH (Fab, V domains shown)
VH: B2 VH with D30S, D31T, R98K, L102V, M105I
VL: B2 VL with M94T, N96T, G98S
notes: Substitutions derived from the printed CDR strings; Fab from E. coli supernatant; also called BCD-135 mutant Fab antibody 6m

- Response [5]: 0.0637
B5: 4m-BCD-135VH (Fab, V domains shown)
VH: B2 VH with D30A, D31N, R98K, L102P, M105T
VL: B2 VL with M94V, N96T, G98S
notes: Substitutions derived from the printed CDR strings; Fab from E. coli supernatant; also called BCD-135 mutant Fab antibody 4m

- Response [5]: 0.0971
B6: 1m-BCD-135VH (Fab, V domains shown)
VH: B2 VH with D30A, D31N, R98K, M105T
VL: B2 VL with M94V, N96T, G98S
notes: Fab from E. coli supernatant; also called BCD-135 mutant Fab antibody 1m

- Response [5]: 0.0505
B7: 2m-BCD-135VH (Fab, V domains shown)
VH: B2 VH with D30N, R98K, L102P, M105T
VL: B2 VL with M94T, N96T, G98S
notes: Substitutions derived from the printed CDR strings; Fab from E. coli supernatant; also called BCD-135 mutant Fab antibody 2m

- Response [5]: 0.0637
B8: 7m-BCD-135VH (Fab, V domains shown)
VH: B2 VH with D30A, R98K, L102P, L103S, M105I
VL: B2 VL with M94E, N96T, G98S
notes: Substitutions derived from the printed CDR strings; Fab from E. coli supernatant; also called BCD-135 mutant Fab antibody 7m

From patent US20200369771A1 (JOINT STOCK COMPANY BIOCAD, published 2020)
